Assay results as given in patent publication US20240034774A1 (Gilead, published 2024).

B1: 1.35.1-1 (antibody, human IgG1, kappa)
heavy: QVQLVQSGAEVKKPGASVRVSCKASGYNIRDYFMHWWRQAPGQGLQWVGWINPKTGQPNNPRQFQGRVTMTRHASWDFDTFSFYMDLSRLRSDDTATYFCARQRTDYWDFDVWGQGTMVTVSSASTKGPSVFPLAPSSKSTSGGTAALGCLVKDYFPEPVTVSWNSGALTSGVHTFPAVLQSSGLYSLSSVVTVPSSSLGTQTYICNVNHKPSNTKVDKKVEPKSCDKTHTCPPCPAPELLAGPDVFLFPPKPKDTLMISRTPEVTCVVVDVSHEDPEVKFNWYVDGVEVHNAKTKPREEQYNSTYRVVSVLTVLHQDWLNGKEYKCKVSNKALPLPEEKTISKAKGQPREPQVYTLPPSREEMTKNQVSLTCLVKGFYPSDIAVEWESNGQPENNYKTTPPVLDSDGSFFLYSKLTVDKSRWQQGNVFSCSVLHEALHSHYTQKSLSLSPGK
light: DIQMTQSPSSLSASVGDTVTITCQANGYLNWYQQRRGKAPKLLIYDGSKLERGVPSRFSGRRWGQEYNLTINNLQPEDIATYFCQVYEFVVPGTRLDLKRTVAAPSVFIFPPSDEQLKSGTASVVCLLNNFYPREAKVQWKVDNALQSGNSQESVTEQDSKDSTYSLSSTLTLSKADYEKHKVYACEVTHQGLSSPVTKSFNRGEC
B2: 1.35.31-1 (antibody, human IgG1, kappa)
heavy: QVQLVQSGAEVKKPGASVRVSCKASGYNIRDYFMHWWRQAPGQGLQWVGWINPKTGQPNNPRQFQGRVTMTRHASWDFDTFSFYMDLSRLRSDDTATYFCARQRTDYWDFDVWGQGTMVTVSSASTKGPSVFPLAPSSKSTSGGTAALGCLVKDYFPEPVTVSWNSGALTSGVHTFPAVLQSSGLYSLSSVVTVPSSSLGTQTYICNVNHKPSNTKVDKKVEPKSCDKTHTCPPCPAPELLAGPDVFLFPPKPKDTLMISRTPEVTCVVVDVSHEDPEVKFNWYVDGVEVHNAKTKPREEQYNSTYRVVSVLTVLHQDWLNGKEYKCKVSNKALPLPEEKTISKAKGQPREPQVYTLPPSREEMTKNQVSLTCLVKGFYPSDIAVEWESNGQPENNYKTTPPVLDSDGSFFLYSKLTVDKSRWQQGNVFSCSVLHEALHSHYTQKSLSLSPGK
light: DIQMTQSPSSLSASVGDTVTITCQANGYLNWYQQRRGKAPKLLIYDGSKLERGVPSRFSGRRWGQEYTLTISSLQPEDIATYFCQVYEFVVPGTNLDLKRTVAAPSVFIFPPSDEQLKSGTASVVCLLNNFYPREAKVQWKVDNALQSGNSQESVTEQDSKDSTYSLSSTLTLSKADYEKHKVYACEVTHQGLSSPVTKSFNRGEC
B3: 1.35.32-1 (antibody, human IgG1, kappa)
heavy: QVQLVQSGAEVKKPGASVRVSCKASGYNIRDYFMHWWRQAPGQGLQWVGWINPKTGQPNNPRQFQGRVTMTRHASWDFDTFSFYMDLSRLRSDDTATYFCARQRTDYWDFDVWGQGTMVTVSSASTKGPSVFPLAPSSKSTSGGTAALGCLVKDYFPEPVTVSWNSGALTSGVHTFPAVLQSSGLYSLSSVVTVPSSSLGTQTYICNVNHKPSNTKVDKKVEPKSCDKTHTCPPCPAPELLAGPDVFLFPPKPKDTLMISRTPEVTCVVVDVSHEDPEVKFNWYVDGVEVHNAKTKPREEQYNSTYRVVSVLTVLHQDWLNGKEYKCKVSNKALPLPEEKTISKAKGQPREPQVYTLPPSREEMTKNQVSLTCLVKGFYPSDIAVEWESNGQPENNYKTTPPVLDSDGSFFLYSKLTVDKSRWQQGNVFSCSVLHEALHSHYTQKSLSLSPGK
light: DIQMTQSPSSLSASVGDTVTITCQANGYLNWYQQRRGKAPKLLIYDGSKLERGVPSRFSGRRWGQEYTLTISSLQPEDIATYFCQVYEFVTPGTRLDLKRTVAAPSVFIFPPSDEQLKSGTASVVCLLNNFYPREAKVQWKVDNALQSGNSQESVTEQDSKDSTYSLSSTLTLSKADYEKHKVYACEVTHQGLSSPVTKSFNRGEC
B4: 1.36.32-1 (antibody, human IgG1, kappa)
heavy: QVQLVQSGAEVKKPGASVRVSCKASGYNIRDYFMHWWRQAPGQGLQWVGWINPKTGQPNNPRQFQGRVTMTRHASWDFDTFSAYMDLSRLRSDDTATYFCARQRTDYWDFDVWGQGTMVTVSSASTKGPSVFPLAPSSKSTSGGTAALGCLVKDYFPEPVTVSWNSGALTSGVHTFPAVLQSSGLYSLSSVVTVPSSSLGTQTYICNVNHKPSNTKVDKKVEPKSCDKTHTCPPCPAPELLAGPDVFLFPPKPKDTLMISRTPEVTCVVVDVSHEDPEVKFNWYVDGVEVHNAKTKPREEQYNSTYRVVSVLTVLHQDWLNGKEYKCKVSNKALPLPEEKTISKAKGQPREPQVYTLPPSREEMTKNQVSLTCLVKGFYPSDIAVEWESNGQPENNYKTTPPVLDSDGSFFLYSKLTVDKSRWQQGNVFSCSVLHEALHSHYTQKSLSLSPGK
light: DIQMTQSPSSLSASVGDTVTITCQANGYLNWYQQRRGKAPKLLIYDGSKLERGVPSRFSGRRWGQEYTLTISSLQPEDIATYFCQVYEFVTPGTRLDLKRTVAAPSVFIFPPSDEQLKSGTASVVCLLNNFYPREAKVQWKVDNALQSGNSQESVTEQDSKDSTYSLSSTLTLSKADYEKHKVYACEVTHQGLSSPVTKSFNRGEC
B5: 1.35.33-1 (antibody, human IgG1, kappa)
heavy: QVQLVQSGAEVKKPGASVRVSCKASGYNIRDYFMHWWRQAPGQGLQWVGWINPKTGQPNNPRQFQGRVTMTRHASWDFDTFSFYMDLSRLRSDDTATYFCARQRTDYWDFDVWGQGTMVTVSSASTKGPSVFPLAPSSKSTSGGTAALGCLVKDYFPEPVTVSWNSGALTSGVHTFPAVLQSSGLYSLSSVVTVPSSSLGTQTYICNVNHKPSNTKVDKKVEPKSCDKTHTCPPCPAPELLAGPDVFLFPPKPKDTLMISRTPEVTCVVVDVSHEDPEVKFNWYVDGVEVHNAKTKPREEQYNSTYRVVSVLTVLHQDWLNGKEYKCKVSNKALPLPEEKTISKAKGQPREPQVYTLPPSREEMTKNQVSLTCLVKGFYPSDIAVEWESNGQPENNYKTTPPVLDSDGSFFLYSKLTVDKSRWQQGNVFSCSVLHEALHSHYTQKSLSLSPGK
light: DIQMTQSPSSLSASVGDTVTITCQANGYLNWYQQRRGKAPKLLIYDGSNLERGVPSRFSGRRWGQEYTLTISSLQPEDIATYFCQVYEFVVPGTNLDIKRTVAAPSVFIFPPSDEQLKSGTASVVCLLNNFYPREAKVQWKVDNALQSGNSQESVTEQDSKDSTYSLSSTLTLSKADYEKHKVYACEVTHQGLSSPVTKSFNRGEC
B6: 1.35.34-1 (antibody, human IgG1, kappa)
heavy: QVQLVQSGAEVKKPGASVRVSCKASGYNIRDYFMHWWRQAPGQGLQWVGWINPKTGQPNNPRQFQGRVTMTRHASWDFDTFSFYMDLSRLRSDDTATYFCARQRTDYWDFDVWGQGTMVTVSSASTKGPSVFPLAPSSKSTSGGTAALGCLVKDYFPEPVTVSWNSGALTSGVHTFPAVLQSSGLYSLSSVVTVPSSSLGTQTYICNVNHKPSNTKVDKKVEPKSCDKTHTCPPCPAPELLAGPDVFLFPPKPKDTLMISRTPEVTCVVVDVSHEDPEVKFNWYVDGVEVHNAKTKPREEQYNSTYRVVSVLTVLHQDWLNGKEYKCKVSNKALPLPEEKTISKAKGQPREPQVYTLPPSREEMTKNQVSLTCLVKGFYPSDIAVEWESNGQPENNYKTTPPVLDSDGSFFLYSKLTVDKSRWQQGNVFSCSVLHEALHSHYTQKSLSLSPGK
light: DIQMTQSPSSLSASVGDTVTITCQANGYLNWYQQRRGKAPKLLIYDGSNLERGVPSRFSGRRWGQEYTLTISSLQPEDIATYFCQVYEFVTPGTRLDIKRTVAAPSVFIFPPSDEQLKSGTASVVCLLNNFYPREAKVQWKVDNALQSGNSQESVTEQDSKDSTYSLSSTLTLSKADYEKHKVYACEVTHQGLSSPVTKSFNRGEC

Columns and labels:
gp120 CAAN = gp120 CAAN (HIV (CAAN)); assay: single-point ELISA at EC50 conc. of A-1
gp120 SHIV SF162 P3 = gp120 SHIV SF162 P3 (SHIV SF162 P3); assay: single-point ELISA at EC50 conc. of A-1
gp120 Bal = gp120 Bal (HIV (Bal)); assay: single-point ELISA at EC50 conc. of A-1
BSA = BSA (UniProt P02769 25-607); assay: single-point ELISA, BSA control

Binder | ELISA A450 (gp120 CAAN) | ELISA A450 (gp120 SHIV SF162 P3) | ELISA A450 (gp120 Bal) | ELISA A450 (BSA)
B1 | 0.87 A450 | 0.8 A450 | 0.84 A450 | 0.07 A450
B2 | 0.99 A450 | 0.68 A450 | 1.05 A450 | 0.07 A450
B3 | 1.01 A450 | 0.58 A450 | 0.96 A450 | 0.06 A450
B4 | 0.5 A450 | 0.18 A450 | 0.96 A450 | 0.07 A450
B5 | 0.91 A450 | 0.65 A450 | 0.9 A450 | 0.06 A450
B6 | 0.85 A450 | 0.58 A450 | 1 A450 | 0.06 A450
